Data from paper PMC8406172, “Mechanism of DNA Interaction and Translocation by the Replicase of a Circular Rep-Encoding Single-Stranded DNA Virus” (mBio, 2021).

Tests used:
[1] = test system: Nc1nc2c(ncn2[C@@H]2O[C@H](COP(=O)(O)OP(=O)(O)OP(=O)(O)O)[C@@H](O)[C@H]2O)c(=O)[nH]1; assay: purified protein; details: 66 nM Rep, room temperature; copurifying DNA present
Text: (§1) NTP/NADH-coupled spectrophotometric assay (pyruvate kinase / lactate dehydrogenase) on PCV2 Rep (replicase)

[2] = test system: O=c1ccn([C@@H]2O[C@H](COP(=O)(O)OP(=O)(O)OP(=O)(O)O)[C@@H](O)[C@H]2O)c(=O)[nH]1; assay: purified protein; details: 66 nM Rep, room temperature; copurifying DNA present
Text: as §1

[3] = test system: Nc1ccn([C@@H]2O[C@H](COP(=O)(O)OP(=O)(O)OP(=O)(O)O)[C@@H](O)[C@H]2O)c(=O)n1; assay: purified protein; details: 66 nM Rep, room temperature; copurifying DNA present
Text: as §1

[4] = target: porcine circovirus 2 (PCV2) replicase (Rep) (porcine circovirus 2 (PCV2b)); assay: cryo-EM structure

Substance	K0.5 [1] [µM]	kcat [1] [s⁻¹]	K0.5 [2] [µM]	kcat [2] [s⁻¹]	K0.5 [3] [µM]	kcat [3] [s⁻¹]	stoichiometry N [4]
PCV2 Rep (replicase) (Porcine circovirus 2)	577.2	0.56	78.5	0.24	284.4	0.16	–
porcine circovirus 2 (PCV2) replicase (Rep) (enzyme)	–	–	–	–	–	–	6
